Three molecules from patent publication US20240053349A1 can be followed below.

Square brackets hold non-standard residues; d marks the D form. Ends that are not written are not given here.

One data set deals with human plasma proteins. Briefly: plasma protein binding, dialysis 4 h at 37 C, 2 µM, LC-MS/MS; control.
Data set [1] addresses mouse plasma proteins (CD-1 mouse). Described as above.
The target in data set [2] is Human FOLR1 on OVCAR3 cells (human) (UniProt P15328). Briefly: flow cytometry on OVCAR3 cells after 1 h at 37 C, after acid wash (internalized fraction).
For data set [3] the target is unchanged. As to the kind of experiment: flow cytometry on OVCAR3 cells after 1 h at 37 C, before acid wash. (In general: In flow cytometry, cells or beads pass a laser one at a time.)
Data set [4] has as its target T1, Fol-hshta-PEG3-Lys(DOTA) (compound #1189) (not fully specified).
T1 chain: HSHTAK

Data set [5] addresses T2, Fol-hshta-PEG3-Gly-Phe-Lys(DOTA) (compound #6307).
T2 chain: HSHTAGFK

Data set [6] concerns the target T3, Folate-hshta-Lys(MPBA)-Gly-Phe-Lys(DOTA) (compound #6305) (not fully specified).
T3 chain: HSHTAKGFK

Data set [7] addresses T4, Folate-hshta-G-F-K(DOTA)-OH (Indi 7327, compound #7327) (not fully specified).
T4 chain: HSHTAGFK

Data set [8] addresses T5, Fol-hshta-Lys(4-MPBA)-Gly-Phe-Lys(PEG3-DOTA) (compound #3302) (not fully specified).
T5 chain: HSHTAKGFK

Data set [9] has as its target T6, Folate-hshta-Lys(IPBA)-M-V-Lys(DOTA) (compound #1306) (not fully specified).
T6 chain: HSHTAKMVK

For data set [10], the target named is T7, Fol-hshta-Gly-Phe-Lys(AO) (compound #3303) (not fully specified).
T7 chain: HSHTAGFK

The target of data set [11] is T8, Folate-hshta-Lys(IPBA)-Gly-Phe-Lys(DOTA) (compound #1307) (not fully specified).
T8 chain: HSHTAKGFK

Data set [12] has as its target T9, Fol-hshta-Lys(4-MPBA)-Gly-Phe-Lys(AO) (compound #3304).
T9 chain: HSHTAKGFK

Data set [13] has as its target T10, Folate-hshta-PEG3-Lys(MPBA)-Lys(DOTA) (compound #2809) (not fully specified).
T10 chain: HSHTAKK

Chain of Human FOLR1 on OVCAR3 cells (human) (P15328 25-234 limits assumed): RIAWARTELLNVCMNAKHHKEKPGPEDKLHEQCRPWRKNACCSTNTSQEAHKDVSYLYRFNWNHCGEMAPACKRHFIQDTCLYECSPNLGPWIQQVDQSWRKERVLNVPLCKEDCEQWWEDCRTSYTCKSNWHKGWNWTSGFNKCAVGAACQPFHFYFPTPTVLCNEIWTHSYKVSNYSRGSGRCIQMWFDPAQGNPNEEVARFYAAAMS

With Octreotide Acetate (peptide), the results for the Plasma % Bound (with human plasma proteins; in data set [1]) were 59.4% and 62.4%, respectively.

B1: DyLight650-labeled folate-hshta Nterm heterobiligand (peptide)
peptide: folate-[dH][dS][dH][dT][dA]
modifications: also: triazole macrocycle via Pra and Az4, places not given here, DyLight 650 label, site not given here
Take B1: the percentage of positively stained cells in data set [2] came out at 54.2%; in [3], 73.4%.

B2: human recombinant neprilysin (NEP) (protein)
chain: YDDGICKSSDCIKSAARLIQNMDATTEPCTDFFKYACGGWLKRNVIPETSSRYGNFDILRDELEVVLKDVLQEPKTEDIVAVQKAKALYRSCINESAIDSRGGEPLLKLLPDIYGWPVATENWEQKYGASWTAEKAIAQLNSKYGKKVLINLFVGTDDKNSVNHVIHIDQPRLGLPSRDYYECTGIYKEACTAYVDFMISVARLIRQEERLPIDENQLALEMNKVMELEKEIANATAKPEDRNDPMLLYNKMTLAQIQNNFSLEINGKPFSWLNFTNEIMSTVNISITNEEDVVVYAPEYLTKLKPILTKYSARDLQNLMSWRFIMDLVSSLSRTYKESRNAFRKALYGTTSETATWRRCANYVNGNMENAVGRLYVEAAFAGESKHVVEDLIAQIREVFIQTLDDLTWMDAETKKRAEEKALAIKERIGYPDDIVSNDNKLNNEYLELNYKEDEYFENIIQNLKFSQSKQLKKLREKVDKDEWISGAAVVNAFYSSGRNQIVFPAGILQPPFFSAQQSNSLNYGGIGMVIGHEITHGFDDNGRNFNKDGDLVDWWTQQSASNFKEQSQCMVYQYGNFSWDLAGGQHLNGINTLGENIADNGGLGQAYRAYQNYIKKNGEEKLLPGLDLNHKQLFFLNFAQVWCGTYRPEYAVNSIKTDVHSPGNFRIIGTLQNSAEFSEAFHCRKNSYMNPEKKCRVW
As to B2, the “NEP cleavage (in vitro Assay Data)” value is “Confirmed to be resistant to NEP cleavage” in [4]; “Cleavage of -G-F-K- linker was confirmed in NEP assay” in data set [5]; “Cleavage of -G-F-K- linker was confirmed in NEP assay” in data set [6]; “Cleavage of -G-F-K- linker was confirmed in NEP assay” in [7]; “Cleavage of -G-F-K- linker was confirmed in NEP assay” in [8]; “Cleavage of -M-V-K- linker was confirmed in NEP assay” in [9]. In addition, the “NEP cleavage (in vitro Assay Data)” value is on record as “Cleavage of -G-F-K- linker was confirmed in NEP assay” in data set [10], “Cleavage of -G-F-K- linker was confirmed in NEP assay” in data set [11], “Cleavage of -G-F-K- linker was confirmed in NEP assay” in data set [12] and “Confirmed to be resistant to NEP cleavage” in [13]. The “NEP-mediated cleavage, NEP titration, MALDI (10 uM PCC)” value in data set [6] was “At 10 nM NEP, complete consumption of the starting peptide was observed. At 1 nM and 0.1 nM NEP, partial cleavage was observed. Below 0.1 nM no cleavage was observed”. The “NEP-mediated cleavage, NEP titration (10.0 to 0 nM), 37 C 1 h, MALDI-MS” value in data set [7] is “At 10 nM NEP, no intact Indi 7327 remains indicating complete consumption of the peptide. At 1.0 and 0.1 nM NEP, partial cleavage was observed. Below 0.1 nM NEP, no cleavage was observed”. Further, the “NEP-mediated cleavage, MALDI-TOF MS” value in data set [9] was “At 1 nM NEP, substantial (and in the case of GFK complete) cleavage of the test article was observed by MALDI-TOF MS”; in data set [11], “At 1 nM NEP, substantial (and in the case of GFK complete) cleavage of the test article was observed by MALDI-TOF MS”.
